# Like-named read-outs stand apart in the source and are kept apart here.
# T1: LRRC15-hFc (Sino Biologicals, 15786-H02H) (UniProt Q8TF66 22-538)
# T1 construct: also called LRRC15-Fc
# T1 sequence (looked up): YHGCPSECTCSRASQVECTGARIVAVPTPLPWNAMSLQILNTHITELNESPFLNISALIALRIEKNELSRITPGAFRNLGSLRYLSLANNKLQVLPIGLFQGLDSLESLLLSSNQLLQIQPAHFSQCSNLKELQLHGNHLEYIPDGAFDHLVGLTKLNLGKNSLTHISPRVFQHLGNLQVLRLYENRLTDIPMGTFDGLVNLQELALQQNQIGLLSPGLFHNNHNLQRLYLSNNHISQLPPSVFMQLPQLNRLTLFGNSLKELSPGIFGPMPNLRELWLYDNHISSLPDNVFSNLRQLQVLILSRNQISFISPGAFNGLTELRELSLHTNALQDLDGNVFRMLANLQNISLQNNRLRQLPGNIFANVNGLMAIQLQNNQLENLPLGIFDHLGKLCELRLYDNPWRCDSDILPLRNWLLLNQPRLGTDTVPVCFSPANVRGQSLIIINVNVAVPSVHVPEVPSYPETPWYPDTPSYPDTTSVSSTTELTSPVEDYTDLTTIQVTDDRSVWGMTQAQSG
# Tests used:
# [1] = molecular target: T1, LRRC15-hFc (Sino Biologicals, …); assay: ELISA (Example 33): cell-free expressed scFv on LRRC15; x axis Log (concentration, nM)
# [2] = molecular target: T2, PD-L1 (Eu-labeled) (UniProt Q9NZQ7 19-238, limits assumed, Eu label); assay: HTRF
# T2 construct: also called Eu-labeled PD-L1
# [3] = molecular target: T3, human IL-2 (human, UniProt P60568 21-153, biotin label in the IL2RB blocking assay); assay: HTRF, IL-2:Fc-IL2RB
# T3 construct: also called biotin-labeled IL-2 (Acro Biosystems IL2-H82E4)
# [4] = molecular target: PD-1 (human, UniProt Q15116 25-167, limits assumed); assay: HTRF
# [5] = molecular target: T3, human IL-2; assay: HTRF
# [6] = molecular target: T4, AF33; assay: ELISA: scFv captured at saturating level on anti-V5, titrated biotinylated AF33 (IL-15 fusion), streptavidin-HRP
# T4 construct: also called IL-15; IL15
# [7] = molecular target: T5, PDL1-hFc-Avi (Acro Biosystems, PDL-H82F2) (UniProt Q9NZQ7 19-238, biotinylated); assay: ELISA: scFv captured at saturating level on anti-V5, titrated PDL1-hFc-Avi, streptavidin-HRP
# [8] = molecular target: T5, PDL1-hFc-Avi (Acro Biosystems, …); assay: as above; remark: listed apart in the source
# [9] = molecular target: T4, AF33; assay: ELISA: scFv captured at saturating level on anti-V5, titrated biotinylated AF33 (IL-15 fusion), streptavidin-HRP; remark: listed apart in the source
# [10] = molecular target: T6, AF3099; assay: ELISA as in Example 9: dilution series of the IFN-scFv complex captured on anti-V5, probed with IFNAR2-Biotin with or without PD-L1, streptavidin-HRP
# T6 construct: IFNα-linker-DBA scFv variant complex
# T3 sequence (P60568 21-153 limits assumed): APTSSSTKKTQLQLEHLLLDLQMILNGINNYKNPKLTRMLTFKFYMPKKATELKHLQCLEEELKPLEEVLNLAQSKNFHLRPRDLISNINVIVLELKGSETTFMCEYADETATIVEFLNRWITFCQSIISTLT
# Sequence of PD-1 (Q15116 25-167 limits assumed): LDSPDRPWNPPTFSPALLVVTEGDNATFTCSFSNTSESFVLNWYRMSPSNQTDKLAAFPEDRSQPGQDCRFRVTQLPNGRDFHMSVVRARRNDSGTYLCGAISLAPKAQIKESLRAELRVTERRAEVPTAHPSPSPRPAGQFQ
binder,measurement,setting,value
i47_A12 (scFv) scFv: MSTSTQVQLVQSGAEVKKPGSSVKVSCKASGYTFINNDINWVRQAPGQGLEWMGGTIPIFGVHIYAQKFQGRVTITADESTSTAYMELSSLRSEDTAVYYCVSSVGAGAYYYYGMDVWGQGTLVTVSSASGGGGSGGGGSGGGGSHASDIQMTQSPSSLSASVGDRVTITCQASQDISNYLNWYQQKPGKAPKLLIYAASSLQSGVPSRFSGSGSGTDFTLTISSLQPEDFATYYCQQSYSLPYTFGQGTRLEIKRAAAGSGSEQKLISEEDLGKPIPNPLLGLDST,binding result,[1],binds
"Anti-IFN control (SEQ ID NO: 30) (scFv, control scFv; also called Anti-IFNα control) scFv: EVQLVESGGGLVQPGGSLRLSCATSGYTFTEYIIHWVRQAPGKGLEWVASINPDYDITNYNQRFKGRFTISLDKSKRTAYLQMNSLRAEDTAVYYCASWISDFFDYWGQGTLVTVSSASGGGGSGGGGSGGGGSHASDIQMTQSPSSLSASVGDRVTITCRASQSVSTSSYSYMHWYQQKPGKAPKVLISYASNLESGVPSRFSGSGSGTDFTLTISSLQPEDFATYYCQHSWGIPRTFGQGTKVEIK",PDL1 Binding (HTRF signal),[2],416
PD1-R07-A05 (scFv) scFv: QVQLVQSGAEVKKPGASVKVSCKASGYTFTTYYVHWVRQAPGQGLEWMGIINPSGGSTSYAQNFQGRVTMTRDTSTSTVYMELSSLRSEDTAVYYCASGWDVWGQGTTVTVSSASGGGGSGGGGSGGGGSHASEIVMTQSPATLSVSPGERATLSCRASQSVNTYLAWYQQKPGQAPRLLIYGASTRATGIPARFSGSGSGTEFTLTISSLQSEDFAVYYCQQYGSSPVTFGQGTRLEIK,IL2RB Blocking (HTRF signal),[3],1730
same,PD1 Binding (HTRF signal),[4],653
same,IL2 Binding (HTRF signal),[5],19
"PDL1-IFN-R01-A06 (scFv, expressed cell-free as Myc tag + scFv + V5 tag) scFv: QVQLVQSGAEVKKPGASVKVSCKASGGTFSSYAISWVRQAPGQGLEWVGWMDPKSGNTGYAQKFQGRVTMTRDTSTSTVYMELSSLRSEDTAVYYCARSLFPTIFGVEVAFDIWGQGTLVTVSSASGGGGSGGGGSGGGGSHASDIQMTQSPSSLSASVGDRVTITCQASQDINNYLNWYQQKPGKAPKLLIYKASSLEPGVPSRFSGSGSGTDFTLTISSLQPEDFATYYCQKSNDVPFTFGQGTKVEIK",PDL1 Binding (HTRF signal),[2],2780
AF635 (scFv) scFv: MSTSTEQKLISEEDLQVQLVQSGAEVKKPGASVKVSCKASGYTFTGYYIHWVRQAPGQGLEWMGIINPSGGSTRYAQKFQGRVTMTRDTSTSTVYMELSSLRSEDTAVYYCARSLFPTIFGVEVAFDIWGQGTLVTVSSASGGGGSGGGGSGGGGSHASDIQMTQSPSSLSASVGDRVTITCRASQSIRTYLNWYQQKPGKAPKLLIYSASNLQSGVPSRFSGSGSGTDFTLTISSLQPEDFATYYCQQANSFPFTFGPGTKVDIKGKPIPNPLLGLDST,binding result,[6],binds
same,binding result,[7],binds
AF636 (scFv) scFv: MSTSTEQKLISEEDLQVQLVQSGAEVKKPGASVKVSCKASGYSFTSYYLHWVRQAPGQGLEWMGRISPRSGGTKNAQNFQGRVTMTRDTSTSTVYMELSSLRSEDTAVYYCVRSLFPTIFGVEVAFDIWGQGTLVTVSSASGGGGSGGGGSGGGGSHASDIQMTQSPSSLSASVGDRVTITCRASQSISSWLAWYQQKPGKAPKLLIYYASSLQSGVPSRFSGSGSGTDFTLTISSLQPEDFATYYCQQGYQYPYTFGQGTKLEIKGKPIPNPLLGLDST,binding result,[8],binds
same,binding result,[9],binds
A03 (scFv) scFv: MSTSTQVQLVQSGAEVKKPGASVKVSCKASGYTFTGYYMHWVRQAPGQGLEWMGWMDPNNDDADYAQRFQGRVTMTRDTSTSTVYMELSSLRSEDTAVYYCASLAAAGPYYYYGMDVWGQGTLVTVSSASGGGGSGGGGSGGGGSHASDIQMTQSPSSLSASVGDRVTITCRASQSINNYLNWYQQKPGKAPKLLIYGASNLETGVPSRFSGSGSGTDFTLTISSLQPEDFATYYCQQSYGTPLTFGGGTKVEIKRAAAGSGSEQKLISEEDLGKPIPNPLLGLDST,binding result,[1],binds
B07 (scFv) scFv: MSTSTQVQLVQSGAEVKKPGASVKVSCKASGYTFTGYYMHWVRQAPGQGLEWMGWMDPNNDDADYAQRFQGRVTMTRDTSTSTVYMELSSLRSEDTAVYYCASLAAAGPYYYYGMDVWGQGTLVTVSSASGGGGSGGGGSGGGGSHASDIQMTQSPSSLSASVGDRVTITCQASQDISNYLNWYQQKPGKAPKLLIYGASILEAGVPSRFSGSGSGTDFTLTISSLQPEDFATYYCQQSYSAPITFGQGTRLEIKRAAAGSGSEQKLISEEDLGKPIPNPLLGLDST,binding result,[1],binds
"PDL1-IFN-R01-C08 (scFv, expressed cell-free as Myc tag + scFv + V5 tag) scFv: QVQLVQSGAEVKKPGASVKVSCKASGGTFSSYAISWVRQAPGQGLEWMGIIDPSVTYTRYAQKFQGRVTMTRDTSTSTVYMELSSLRSEDTAVYYCARSLFPTIFGVEVAFDIWGQGTLVTVSSASGGGGSGGGGSGGGGSHASDIQMTQSPSSLSASVGDRVTITCQASQDISNYLNWYQQKPGKAPKLLIYGASTLQSGVPSRFSGSGSGTDFTLTISSLQPEDFATYYCQQTYSTPITFGQGTKVEIK",PDL1 Binding (HTRF signal),[2],2750
i47_A11 (scFv) scFv: MSTSTQVQLVQSGAEVKKPGSSVKVSCKASGYTFTSYDINWVRQAPGQGLEWMGTINPSDGDTTYAQKFQGRVTITADESTSTAYMELSSLRSEDTAVYYCARVGGWGIYYYYGMDVWGQGTLVTVSSASGGGGSGGGGSGGGGSHASDIQMTQSPSSLSASVGDRVTITCRASQSINSWLAWYQQKPGKAPKLLIYAASSLQSGVPSRFSGSGSGTDFTLTISSLQPEDFATYYCQQTYTVPFSFGQGTKLEIKRAAAGSGSEQKLISEEDLGKPIPNPLLGLDST,binding result,[1],binds
"IFNAR2-Biotin (receptor, biotinylated, also called biotinylated interferon receptor (IFNAR2)) ISYDSPDYTDESCTFKISLRNFRSILSWELKNHSIVPTHYTLLYTIMSKPEDLKVVKNCANTTRSFCDLTDEWRSTHEAYVTVLEGFSGNTTLFSCSHNFWLAIDMSFEPPEFEIVGFTNHINVMVKFPSIVEEELQFDLSLVIEEQSEGIVKKHKPEIKGNMSGNFTYIIDKLIPNTNYCVSVYLEHSDEQAVIKSPLKCTLLPPGQESESAESAK",binding result,[10],no binding (tested: 0.5 % IFN-scFv)
"PDL1-IFN-R01-C11 (scFv, expressed cell-free as Myc tag + scFv + V5 tag) scFv: QVQLVQSGAEVKKPGASVKVSCKASGGTFSSYAISWVRQAPGQGLEWMGWMDANNGNTGYAQKFQGRVTMTRDTSTSTVYMELSSLRSEDTAVYYCARSLFPTIFGVEVAFDIWGQGTLVTVSSASGGGGSGGGGSGGGGSHASDIQMTQSPSSLSASVGDRVTITCRASQSVSSYLNWYQQKPGKAPKLLIYKASSLESGVPSRFSGSGSGTDFTLTISSLQPEDFATYYCQQSSSTPLSFGGGTKVEIK",PDL1 Binding (HTRF signal),[2],3040
"PDL1-IFN-R01-B12 (scFv, expressed cell-free as Myc tag + scFv + V5 tag) scFv: QVQLVQSGAEVKKPGASVKVSCKASGNTFTDYYMHWVRQAPGQGLEWMGWMNPNSGNTGYAQKFQGRVTMTRDTSTSTVYMELSSLRSEDTAVYYCARSLFPTIFGVEVAFDIWGQGTLVTVSSASGGGGSGGGGSGGGGSHASDIQMTQSPSSLSASVGDRVTITCQASQDISNYLNWYQQKPGKAPKLLIYAASSLQSGVPSRFSGSGSGTDFTLTISSLQPEDFATYYCQQSYSTPPTFGQGTRLEIK",PDL1 Binding (HTRF signal),[2],2980
"PDL1-IFN-R01-A11 (scFv, expressed cell-free as Myc tag + scFv + V5 tag) scFv: QVQLVQSGAEVKKPGASVKVSCKASGGTFSSYYMHWVRQAPGQGLEWMGWMNPNSGNTGYAQKFQGRVTMTRDTSTSTVYMELSSLRSEDTAVYYCARSLFPTIFGVEVAFDIWGQGTLVTVSSASGGGGSGGGGSGGGGSHASDIQMTQSPSSLSASVGDRVTITCQASQDITNYLNWYQQKPGKAPKLLIYAASSLESGVPSRFSGSGSGTDFTLTISSLQPEDFATYYCQQSYSIPITFGQGTRLEIK",PDL1 Binding (HTRF signal),[2],2960
"PDL1-IFN-R01-B09 (scFv, expressed cell-free as Myc tag + scFv + V5 tag) scFv: QVQLVQSGAEVKKPGASVKVSCKASGGTFTGYYMHWVRQAPGQGLEWMGWVNPNSGNTGYAQKFQGRVTMTRDTSTSTVYMELSSLRSEDTAVYYCARSLFPTIFGVEVAFDIWGQGTLVTVSSASGGGGSGGGGSGGGGSHASDIQMTQSPSSLSASVGDRVTITCQASQDISNYLNWYQQKPGKAPKLLIYAASSLQSGVPSRFSGSGSGTDFTLTISSLQPEDFATYYCQQSYSPPPTFGQGTKLEIK",PDL1 Binding (HTRF signal),[2],1380

# — US20240024501A1 (BONUM THERAPEUTICS, published 2024)
